Six molecules from US20180222952A1 (NEW YORK UNIVERSITY, published 2018) can be followed below.

T1: Recombinant sortilin (R&D Systems Cat. No. 3154-ST-050) (UniProt Q99523 78-755, biotin-labeled in the solid phase binding assay of FIG. 11; unlabeled in SPR)
T1 construct: also called biotin-labeled Sortilin
T1 sequence (looked up): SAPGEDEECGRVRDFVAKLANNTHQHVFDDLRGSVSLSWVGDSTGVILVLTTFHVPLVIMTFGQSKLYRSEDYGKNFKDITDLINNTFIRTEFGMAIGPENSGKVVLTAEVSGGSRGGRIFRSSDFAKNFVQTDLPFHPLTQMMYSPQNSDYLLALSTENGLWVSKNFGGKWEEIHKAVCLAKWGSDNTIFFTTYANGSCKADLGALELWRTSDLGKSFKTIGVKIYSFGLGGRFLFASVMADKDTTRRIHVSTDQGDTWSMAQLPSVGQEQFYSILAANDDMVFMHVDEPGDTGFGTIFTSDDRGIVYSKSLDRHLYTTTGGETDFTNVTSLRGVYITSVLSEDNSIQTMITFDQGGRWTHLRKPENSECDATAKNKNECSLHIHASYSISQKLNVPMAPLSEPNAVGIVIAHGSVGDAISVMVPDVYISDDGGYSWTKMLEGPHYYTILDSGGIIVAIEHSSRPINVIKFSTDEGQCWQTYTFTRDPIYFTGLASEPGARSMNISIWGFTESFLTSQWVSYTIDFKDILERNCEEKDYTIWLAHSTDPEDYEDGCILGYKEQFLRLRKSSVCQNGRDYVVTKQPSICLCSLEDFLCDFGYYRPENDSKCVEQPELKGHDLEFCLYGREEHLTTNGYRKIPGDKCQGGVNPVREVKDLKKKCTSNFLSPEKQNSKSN

T2: RFP-fused GBA (encoded by pDsRed-GBA) (UniProt P04062 40-536)
T2 construct: also called RFP fused GCase; GCase; not shown: RFP (DsRed) tag
T2 sequence (looked up): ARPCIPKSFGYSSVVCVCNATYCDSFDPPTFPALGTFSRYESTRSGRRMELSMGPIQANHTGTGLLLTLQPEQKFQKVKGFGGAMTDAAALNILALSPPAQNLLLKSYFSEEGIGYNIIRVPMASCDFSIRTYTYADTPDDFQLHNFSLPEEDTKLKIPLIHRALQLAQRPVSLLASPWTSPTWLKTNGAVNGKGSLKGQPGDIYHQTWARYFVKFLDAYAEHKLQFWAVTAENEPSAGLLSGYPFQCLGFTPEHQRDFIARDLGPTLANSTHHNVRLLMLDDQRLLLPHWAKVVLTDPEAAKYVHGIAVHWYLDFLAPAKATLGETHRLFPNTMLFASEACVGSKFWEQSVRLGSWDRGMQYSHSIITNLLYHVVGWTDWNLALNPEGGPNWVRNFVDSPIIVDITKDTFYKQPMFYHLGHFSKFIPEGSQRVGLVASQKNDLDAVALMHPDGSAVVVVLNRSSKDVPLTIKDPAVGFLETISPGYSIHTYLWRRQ

B1: Recombinant GBA (glucocerebrosidase; R&D Systems Cat. No. 7410-GH-010) (enzyme, UniProt P04062 40-536, looked up)
chain: T2 sequence (looked up)
modifications: biotin-labeled (EZ-Link Sulfo-NHS-LC-Biotin) in the solid phase binding assays; unlabeled in SPR
notes: also called GCase; biotin-labeled GBA
B2: Recombinant Pcgin, His-tagged, expressed in bacteria (other)
chain: EKEVVSAQPATFLARSPHVGVKDVECGEGHFCHDNQTCCRDNRQGWACCPYRQGVCCADRRHCCPAGFRCAARGTKCLRREAPRWDAPLRDPALRQLL
notes: also called ND7; PGRN ND7 fragment; not shown: His tag
B3: GFP fused Pcgin/ND7 deletion mutant lacking aa535-539 (RDNRQ) (other)
chain: EKEVVSAQPATFLARSPHVGVKDVECGEGHFCHDNQTCCGWACCPYRQGVCCADRRHCCPAGFRCAARGTKCLRREAPRWDAPLRDPALRQLL
notes: also called ΔRDNRQ; ΔDNRQ; not shown: GFP tag
B4: Recombinant His-tag PGRN protein (full length progranulin) (ligand)
chain: TRCPDGQFCPVACCLDPGGASYSCCRPLLDKWPTTLSRHLGGPCQVDAHCSAGHSCIFTVSGTSSCCPFPEAVACGDGHHCCPRGFHCSADGRSCFQRSGNNSVGAIQCPDSQFECPDFSTCCVMVDGSWGCCPMPQASCCEDRVHCCPHGAFCDLVHTRCITPTGTHPLAKKLPAQRTNRAVALSSSVMCPDARSRCPDGSTCCELPSGKYGCCPMPNATCCSDHLHCCPQDTVCDLIQSKCLSKENATTDLLTKLPAHTVGDVKCDMEVSCPDGYTCCRLQSGAWGCCPFTQAVCCEDHIHCCPAGFTCDTQKGTCEQGPHQVPWMEKAPAHLSLPDPQALKRDVPCDNVSSCPSSDTCCQLTSGEWGCCPIPEAVCCSDHQHCCPQGYTCVAEGQCQRGSEIVAGLEKMPARRASLSHPRDIGCDQHTSCPVGQTCCPSLGGSWACCQLPHAVCCEDRQHCCPAGYTCNVKARSCEKEVVSAQPATFLARSPHVGVKDVECGEGHFCHDNQTCCRDNRQGWACCPYRQGVCCADRRHCCPAGFRCAARGTKCLRREAPRWDAPLRDPALRQLL
notes: also called rPGRN; His-tagged PGRN; not shown: His tag
B5: GFP fused Pcgin/ND7 deletion mutant lacking aa523-534 (other)
chain: EKEVVSAQPATFLARSPHVGVKDVECGRDNRQGWACCPYRQGVCCADRRHCCPAGFRCAARGTKCLRREAPRWDAPLRDPALRQLL
notes: not shown: GFP tag
B6: Recombinant LIMP2 (lysosomal integral membrane protein 2; R&D Systems Cat. No. 1966-LM-050) (receptor, UniProt Q14108 27-432, looked up)
chain: RVFQKAVDQSIEKKIVLRNGTEAFDSWEKPPLPVYTQFYFFNVTNPEEILRGETPRVEEVGPYTYRELRNKANIQFGDNGTTISAVSNKAYVFERDQSVGDPKIDLIRTLNIPVLTVIEWSQVHFLREIIEAMLKAYQQKLFVTHTVDELLWGYKDEILSLIHVFRPDISPYFGLFYEKNGTNDGDYVFLTGEDSYLNFTKIVEWNGKTSLDWWITDKCNMINGTDGDSFHPLITKDEVLYVFPSDFCRSVYITFSDYESVQGLPAFRYKVPAEILANTSDNAGFCIPEGNCLGSGVLNVSICKNGAPIIMSFPHFYQADERFVSAIEGMHPNQEDHETFVDINPLTGIILKAAKRFQINIYVKKLDDFVETGDIRTMVFPVMYLNESVHIDKETASRLKSMINTT
modifications: biotin-labeled (EZ-Link Sulfo-NHS-LC-Biotin)
notes: also called biotin-labeled LIMP2

The target in test [1] is B4. The experiment in a line: SPR, SensiQ Pioneer, GBA immobilised, PGRN injected (OneStep). As to the method:
Surface Plasmon Resonance (SPR): All SPR experiments were done by SensiQ Technologies Inc. (Oklahoma City, Okla.) by using SensiQ Pioneer at a controlled analysis temperature of 25° C., and samples in the instrument sample racks were maintained at 18° C. The running buffer throughout the immobilization and the assay consisted of 10 mM HEPES, 150 mM NaCl, 0.005% Tween 20. Buffer pH was adjusted to pH 7.4, 6.5, 6.0 or 5.5 for individual runs, and for each pH the running buffer was used to prepare PGRN samples and sucrose diffusion standards.
The assay of PGRN was performed with a total of five buffer blank injections and two replicates of 200 nM PGRN, all of which were given a 1 hour dissociation time. The OneStep™ injection was used for this assay to determine kinetic rate constants and the equilibrium dissociation constant from a single gradient inject. Two injections of 3% sucrose in running buffer were performed to serve as a diffusion standard.
Data was analyzed using the QDat Analysis Software (SensiQ Technologies and BioLogic Software). All data were double referenced to a reference channel (channel 2) and buffer blanks. The average signal of the buffer blanks was used to subtract injection artifacts. Referenced SPR data from the analysis channels were model fit to ascertain ka, kd, and KD for the interactions.
For orientation: SPR reads the build-up and loss of mass on a sensor chip optically.

For test [2], the target named is B1. The experiment in a line: solid phase binding, Pcgin coated, biotin-labeled GCase, ELISA-based detection. As to the method: (§1) Pcgin was coated on a 96-well plate and incubated with biotin-labeled GCase, HSP70, and Sortilin (serving as a positive control) respectively. The direct binding was detected by ELISA-based method.
(§2) Pcgin was then expressed in bacteria and purified as a His-tagged protein. The purity was examined by Coomassie Blue staining and confirmed by Western blotting with His probe (FIG. 10). […] Although Pcgin retained GCase and HSP70 binding activity of PGRN, it lacked PGRN's oncogenic activity, including PGRN-activated oncogenic signaling and cell proliferation (data not shown).
(In an ELISA, binding on a coated surface is turned into a signal by an enzyme label.)

Test [3] concerns the target T1, Recombinant sortilin (R&D Systems Cat. …). As to the kind of experiment: solid phase binding, Pcgin coated, biotin-labeled sortilin (positive control), ELISA-based detection. As to the method:
as §1, §2

The target of test [4] is HSP70 expressed from a plasmid in transfected 293T cells (UniProt P0DMV8 1-641). As to the kind of experiment: co-IP from co-transfected 293T cells: IP anti-GFP, IB anti-HSP70. The text has this:
(§3) FIG. 8 depicts that Pcgin/ND7 fragment of PGRN has binding motifs for GCase and HSP70. (A) Scheme of Pcgin amino acid structure and its deletion mutants. (B) Co-IP assays for examining the binding of Pcgin and its mutants to GCase and HSP70. 293T cells were transfected with plasmids encoding either GFP fused Pcgin or its mutants, together with plasmids encoding RFP fused GCase and HSP70, and the protein complexes were immunoprecipitated with GFP antibody and probed with RFP or HSP70 antibodies respectively. […] The result is representative of three independent experiments. (C) Structure and sequence of Pcgin/ND7 fragment of PGRN. […] Sequence of Pcgin (SEQ ID NO:4) is shown in the bottom panel. Linker regions and Gm E are highlighted in green and red, respectively. Binding sites of GCase, HSP70, and Sortilin are indicated.

In test [5] the target is T1, Recombinant sortilin (R&D Systems Cat. …). As to the kind of experiment: SPR, SensiQ Pioneer, sortilin immobilised, PGRN injected (OneStep).
Test [6] deals with T2, RFP-fused GBA (encoded by pDsRed-GBA). As to the kind of experiment: co-IP from co-transfected 293T cells: IP anti-GFP, IB anti-RFP.
Excerpt: as §3

Test [7] deals with B4. As to the kind of experiment: solid phase binding, PGRN coated, biotin-labeled LIMP2. As to the method:
Solid phase binding: 0.1, 1, 2, and 5 μg/ml PGRN proteins were coated in 96-wells with triplicate wells in PBS for overnight. The plate was washed with 0.1% tween/PBS five times and then blocked with 2% BSA/PBS solution. Two μg BSA, LIMP2 and GBA protein were labeled with biotin followed the protocol of EZ-Link Sulfo-NHS-LC-Biotin and Biotinylation Kits (Thermo Scientific). Biotin-labeled LIMP2, GBA or BSA were added in the plate and incubate for 2 hours. Wash with 0.1% tween/PBS, and coated with streptavidin-HRP (1:2000 dilution) solution for 1 hour. After washing add t h e substrate and stop the reaction with […] H₂SO₄. Read result at UV 450 nm in plate reader.

Chain of HSP70 expressed from a plasmid in transfected 293T cells (P0DMV8 whole entry, the tested form may be a part): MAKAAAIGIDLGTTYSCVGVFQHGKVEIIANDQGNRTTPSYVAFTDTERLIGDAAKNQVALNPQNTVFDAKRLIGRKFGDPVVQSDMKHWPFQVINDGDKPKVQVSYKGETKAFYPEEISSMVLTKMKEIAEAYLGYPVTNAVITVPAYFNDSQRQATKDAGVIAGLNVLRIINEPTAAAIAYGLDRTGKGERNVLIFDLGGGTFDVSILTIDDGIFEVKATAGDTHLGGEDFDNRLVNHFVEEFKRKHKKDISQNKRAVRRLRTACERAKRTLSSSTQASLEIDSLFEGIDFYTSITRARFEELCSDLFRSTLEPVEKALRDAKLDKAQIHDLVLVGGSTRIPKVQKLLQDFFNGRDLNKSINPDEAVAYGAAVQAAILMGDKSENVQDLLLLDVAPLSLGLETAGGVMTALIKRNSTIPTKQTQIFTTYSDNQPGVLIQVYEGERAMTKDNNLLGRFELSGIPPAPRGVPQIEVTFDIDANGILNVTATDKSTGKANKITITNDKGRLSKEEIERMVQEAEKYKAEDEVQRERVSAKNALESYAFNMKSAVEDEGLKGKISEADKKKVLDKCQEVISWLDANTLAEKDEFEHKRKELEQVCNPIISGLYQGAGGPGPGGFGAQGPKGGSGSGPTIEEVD

What is called Kd is a measure of binding affinity in units of concentration. For B1, in test [1], the Kd was 0.71 nM.

Take B2: the binding result in test [2] and in test [3] was “binds” in each case.

As for B3, the binding result in test [4] is “no binding”.

In the case of B4, the Kd in test [5] amounted to 3.67 nM.

In the case of B5, in test [6], the binding result is reported as “no binding”.

Consider B6, for which the binding result in test [7] is “no binding”.
